# From patent US20220332804A1 (CSL INNOVATION, published 2022)
# T1: human C2 K274A (human, UniProt P06681 21-752)
# T1 sequence: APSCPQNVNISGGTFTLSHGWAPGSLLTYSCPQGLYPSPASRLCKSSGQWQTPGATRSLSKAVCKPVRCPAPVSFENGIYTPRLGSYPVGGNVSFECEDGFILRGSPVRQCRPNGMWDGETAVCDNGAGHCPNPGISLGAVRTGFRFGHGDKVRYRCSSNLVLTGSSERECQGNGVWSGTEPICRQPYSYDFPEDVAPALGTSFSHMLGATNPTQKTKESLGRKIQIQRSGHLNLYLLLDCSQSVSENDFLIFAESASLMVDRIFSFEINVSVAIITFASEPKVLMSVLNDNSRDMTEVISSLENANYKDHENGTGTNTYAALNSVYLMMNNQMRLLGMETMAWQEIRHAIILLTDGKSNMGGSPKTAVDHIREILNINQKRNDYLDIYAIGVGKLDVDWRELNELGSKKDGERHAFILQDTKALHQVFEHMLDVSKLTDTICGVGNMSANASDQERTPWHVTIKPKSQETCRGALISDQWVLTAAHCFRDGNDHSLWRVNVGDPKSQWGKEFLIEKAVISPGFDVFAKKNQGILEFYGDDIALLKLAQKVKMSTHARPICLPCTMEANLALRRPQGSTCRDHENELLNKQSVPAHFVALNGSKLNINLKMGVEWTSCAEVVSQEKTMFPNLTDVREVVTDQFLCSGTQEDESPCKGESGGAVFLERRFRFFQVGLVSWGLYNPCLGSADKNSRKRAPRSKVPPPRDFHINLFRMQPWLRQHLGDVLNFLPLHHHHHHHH
# T2: human C2 S428A (human, UniProt P06681 21-752)
# T2 sequence: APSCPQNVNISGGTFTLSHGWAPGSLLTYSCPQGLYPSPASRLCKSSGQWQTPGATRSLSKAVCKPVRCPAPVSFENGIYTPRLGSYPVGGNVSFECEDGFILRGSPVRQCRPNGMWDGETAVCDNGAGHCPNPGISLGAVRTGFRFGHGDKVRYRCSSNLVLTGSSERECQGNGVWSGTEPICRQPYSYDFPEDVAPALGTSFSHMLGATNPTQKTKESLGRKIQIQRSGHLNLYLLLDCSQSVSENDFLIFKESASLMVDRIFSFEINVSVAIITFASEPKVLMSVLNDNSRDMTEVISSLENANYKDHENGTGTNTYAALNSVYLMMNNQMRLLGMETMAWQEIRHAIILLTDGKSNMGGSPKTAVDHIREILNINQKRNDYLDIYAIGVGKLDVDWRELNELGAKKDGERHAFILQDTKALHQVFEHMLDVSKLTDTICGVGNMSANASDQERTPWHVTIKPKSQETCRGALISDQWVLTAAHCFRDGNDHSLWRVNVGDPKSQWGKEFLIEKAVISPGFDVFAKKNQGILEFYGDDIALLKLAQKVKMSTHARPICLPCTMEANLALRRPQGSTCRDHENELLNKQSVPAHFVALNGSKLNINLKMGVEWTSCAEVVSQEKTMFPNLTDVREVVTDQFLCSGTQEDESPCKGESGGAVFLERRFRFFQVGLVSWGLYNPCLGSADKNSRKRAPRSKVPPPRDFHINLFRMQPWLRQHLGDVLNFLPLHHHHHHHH
# T3: human C2 N471A (human, UniProt P06681 21-752)
# T3 sequence: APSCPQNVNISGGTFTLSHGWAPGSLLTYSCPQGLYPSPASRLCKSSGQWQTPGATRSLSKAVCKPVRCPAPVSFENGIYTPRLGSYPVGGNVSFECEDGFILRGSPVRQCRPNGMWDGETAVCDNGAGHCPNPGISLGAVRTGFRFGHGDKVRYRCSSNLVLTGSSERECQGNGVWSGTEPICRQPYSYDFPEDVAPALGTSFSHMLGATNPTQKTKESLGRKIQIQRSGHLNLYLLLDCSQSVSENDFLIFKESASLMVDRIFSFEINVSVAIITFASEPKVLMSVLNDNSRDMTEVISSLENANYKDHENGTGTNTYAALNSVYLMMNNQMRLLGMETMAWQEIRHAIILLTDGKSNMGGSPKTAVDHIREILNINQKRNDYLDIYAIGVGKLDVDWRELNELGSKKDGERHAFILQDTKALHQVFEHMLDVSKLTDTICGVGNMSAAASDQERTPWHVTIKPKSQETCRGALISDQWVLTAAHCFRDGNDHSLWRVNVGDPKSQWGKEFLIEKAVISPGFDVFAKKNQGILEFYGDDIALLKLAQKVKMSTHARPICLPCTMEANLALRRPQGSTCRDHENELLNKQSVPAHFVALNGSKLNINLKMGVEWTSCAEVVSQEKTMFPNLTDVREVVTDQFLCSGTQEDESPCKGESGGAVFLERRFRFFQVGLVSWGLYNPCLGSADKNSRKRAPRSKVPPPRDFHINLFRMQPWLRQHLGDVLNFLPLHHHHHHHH
# T4: human C2 E476A (human, UniProt P06681 21-752)
# T4 sequence: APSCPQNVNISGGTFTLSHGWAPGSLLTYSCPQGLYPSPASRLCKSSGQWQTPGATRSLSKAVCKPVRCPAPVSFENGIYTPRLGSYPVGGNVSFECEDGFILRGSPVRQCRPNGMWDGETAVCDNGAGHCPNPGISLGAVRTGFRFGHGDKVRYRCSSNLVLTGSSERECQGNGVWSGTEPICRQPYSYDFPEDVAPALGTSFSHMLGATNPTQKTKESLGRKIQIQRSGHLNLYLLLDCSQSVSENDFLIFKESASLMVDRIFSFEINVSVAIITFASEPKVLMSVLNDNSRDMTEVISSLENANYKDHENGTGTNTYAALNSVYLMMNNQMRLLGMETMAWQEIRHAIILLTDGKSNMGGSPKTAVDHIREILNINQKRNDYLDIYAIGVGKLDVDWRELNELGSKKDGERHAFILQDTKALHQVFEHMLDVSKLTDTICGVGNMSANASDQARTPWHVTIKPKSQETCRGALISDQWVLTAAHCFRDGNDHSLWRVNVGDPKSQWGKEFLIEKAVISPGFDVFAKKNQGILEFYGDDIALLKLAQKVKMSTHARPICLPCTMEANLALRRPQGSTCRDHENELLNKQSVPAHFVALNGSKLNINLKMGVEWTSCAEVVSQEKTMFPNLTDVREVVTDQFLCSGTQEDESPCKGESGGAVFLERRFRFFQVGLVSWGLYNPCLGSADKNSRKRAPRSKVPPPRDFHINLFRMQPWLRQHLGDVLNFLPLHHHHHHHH
# Columns and labels:
# Test in all cases: SPR, mAb captured, C2 mutant analyte;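 further: Anti-C2 mAbs captured on goat anti-human IgG Biacore CM5 chips, alanine or serine C2 surface mutants flowed over at 37 °C, double-referenced sensorgrams fitted to a 1:1 binding model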
# [1] = target: T1, human C2 K274A
# [2] = target: T2, human C2 S428A
# [3] = target: T3, human C2 N471A
# [4] = target: T4, human C2 E476A
binder,measurement,setting,value
"RF16-214 (antibody, V domains shown) VH: EVQLLESGGGLVQPGGSLRLSCAASGFTFSWYQMMWVRQAPGKGLEWVSRIYPSGGGTAYADSVKGRFTISRDNSKNTLYLQMNSLRAEDTAVYYCARDAGYGDNWGQGTLVTVSS VL: QSALTQPPSVSVSPGQTASITCSGDKLGEKYASWYQQKAGQSPVMVIYQDRKRPSGIPERFSGSNSGNTATLTISGTQAMDEADYYCQAWDTRAVVFGGGTKLTVLG",binding result,[1],no binding
same,Kd,[2],58.6 nM
same,Kd,[3],32.8 nM
same,Kd,[4],58.6 nM
